The text below walks through data of patent publication US20090053196A1 (LUDWIG MAXIMILLIANS UNIVERSITAT MUNCHEN, published 2009).

Assay [1] has as its target T1, FLAG-tagged UNC-45 (UNC-45^FLAG) (Caenorhabditis elegans).
T1 construct: Purified as described in Barral 2002; also called ^FLAGUNC-45; purified UNC-45
Put plainly: GST pull-down, equimolar GST-UFD-2 or GST-CHN-1 with identical amounts of purified UNC-45. The method, then:
(B) In vitro binding of UNC-45 by UFD-2 or CHN-1. Equimolar amounts of GST-UFD-2 and GST-CHN-1 were incubated with the same amount of purified FLAG-tagged UNC-45 (UNC-45^FLAG) and pulled down with glutathione-Sepharose beads. GST alone with UNC-45^FLAG served as the negative control.
Binding of UNC-45^FLAG, ^mycCHN-1, ^mycCHN-1^ΔU-box, ^mycCHN-1^ΔTPR, ^mycCHN-1^Δ, ^mycUFD-2, ^mycUFD-2^{ΔU-box,} ^mycHSP-1 to GST-UFD-2 or GST-CHN-1 was done in buffer A [10 mM Tris pH 8, 10 mM DTT, Complete protease inhibitors (Boehringer)]+150 mM NaCl at 4° C. for 60 min. Glutathione-Sepharose beads were washed at least five times in buffer A with 0.1% Triton X-100 and 150 mM NaCl and bound proteins were eluted with SDS-PAGE sample buffer. […]
To compare their binding efficiencies, pull-down experiments were performed using equimolar amounts of GST-UFD-2 or GST-CHN-1 with identical amounts of purified UNC-45. […] Binary mixtures containing immobilized UFD-2 and either UNC-45 or CHN-1, and a ternary mixture containing all three proteins were set up and the resulting complexes analyzed by SDS-polyacrylamide gel electrophoresis. Approximately equimolar complexes were detected between UFD-2 and both CHN-1 and UNC-45 in the binary mixtures and among the three proteins in the ternary mixture. […]

Assay [2] addresses T2, myc-tagged HSP-1 (^mycHSP-1) (Caenorhabditis elegans, UniProt P09446 1-640).
T2 construct: Bacterially expressed from pET-^mycHSP-1; also called C. elegans Hsp70 homolog; Hsp70 ortholog HSP-1; not shown: N-terminal myc tag introduced 5' of the cDNA by PCR (pET21a)
Briefly: summary sentence of Example 5 on the earlier binding assays. The method, then:
(§1) Binding of UNC-45^FLAG, ^mycCHN-1, ^mycCHN-1^ΔU-box, ^mycCHN-1^ΔTPR, ^mycCHN-1^Δ, ^mycUFD-2, ^mycUFD-2^{ΔU-box,} ^mycHSP-1 to GST-UFD-2 or GST-CHN-1 was done in buffer A [10 mM Tris pH 8, 10 mM DTT, Complete protease inhibitors (Boehringer)]+150 mM NaCl at 4° C. for 60 min. Glutathione-Sepharose beads were washed at least five times in buffer A with 0.1% Triton X-100 and 150 mM NaCl and bound proteins were eluted with SDS-PAGE sample buffer. Sonicated lysates from wild-type worms expressing the transgene P_unc-54::unc-45^FLAG were incubated with anti-FLAG M2-agarose beads (Sigma) in 50 mM Tris/HCl (pH 8.0), 100 mM NaCl, 10% glycerol, 1% Triton X-100 and 5 mM PMSF at 4° C. for 3 hours. Samples were precipitated with protein G-agarose beads (Amersham Pharmacia). Immunoprecipitates were washed at least five times in the same lysis buffer, were eluted with SDS-PAGE sample buffer and were separated by SDS gel electrophoresis followed by Western blotting using anti-FLAG M2 monoclonal antibodies (Sigma) or anti-Ubiquitin monoclonal antibodies (Chemicon).

The target in the next assay is T3, GST (UniProt P08515 1-218 = GST).
T3 construct: Negative control of the pull-down experiments; also called GST alone; immobilized GST
Put plainly: GST pull-down with glutathione-Sepharose beads. The method, then: (C) Complex of CHN-1, UFD-2 and UNC-45. GST-UFD-2 was incubated with purified FLAG-tagged UNC-45 (UNC-45^FLAG) and myc-tagged CHN-1 (^mycCHN-1) together, ^mycCHN-1 or UNC-45^FLAG alone and pulled down with glutathione-Sepharose beads. GST alone with UNC-45^FLAG and ^mycCHN-1 served as the negative control.
as §1

T2 sequence (P09446 whole entry): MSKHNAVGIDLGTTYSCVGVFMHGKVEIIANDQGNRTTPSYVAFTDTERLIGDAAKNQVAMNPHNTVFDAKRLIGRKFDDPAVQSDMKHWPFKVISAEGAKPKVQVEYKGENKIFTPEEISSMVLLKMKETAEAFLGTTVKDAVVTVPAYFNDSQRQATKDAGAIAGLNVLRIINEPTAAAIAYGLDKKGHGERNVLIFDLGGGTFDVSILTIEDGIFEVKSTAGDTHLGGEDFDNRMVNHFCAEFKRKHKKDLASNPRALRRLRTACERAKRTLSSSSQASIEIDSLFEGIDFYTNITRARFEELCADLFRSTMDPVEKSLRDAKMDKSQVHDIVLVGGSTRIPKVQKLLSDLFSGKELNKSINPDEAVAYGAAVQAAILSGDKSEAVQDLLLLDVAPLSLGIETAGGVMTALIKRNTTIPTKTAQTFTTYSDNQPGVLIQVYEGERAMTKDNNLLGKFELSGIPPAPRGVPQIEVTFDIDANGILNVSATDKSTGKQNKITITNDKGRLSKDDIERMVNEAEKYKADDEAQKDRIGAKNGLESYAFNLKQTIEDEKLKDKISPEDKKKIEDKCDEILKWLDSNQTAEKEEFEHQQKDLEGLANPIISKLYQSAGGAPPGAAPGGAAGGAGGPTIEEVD
T3 sequence (P08515 whole entry): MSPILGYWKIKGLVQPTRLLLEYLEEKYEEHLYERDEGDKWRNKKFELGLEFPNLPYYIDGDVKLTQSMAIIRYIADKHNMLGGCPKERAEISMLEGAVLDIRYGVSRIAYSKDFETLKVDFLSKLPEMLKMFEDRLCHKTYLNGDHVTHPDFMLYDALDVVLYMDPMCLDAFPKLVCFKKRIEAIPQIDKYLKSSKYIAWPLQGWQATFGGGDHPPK

B1: GST-UFD-2 (enzyme, Caenorhabditis elegans, UniProt Q09349 1-984, looked up)
chain: MIEDEKAGLQPMDISDASVFFFQADVESKDFLTSLFDCEGKSDDRMLRYADAIIDVQNLNFDVSPQCLQSNIAEIITKFVLLSQDGSRRGLSRSFNFIDPDIIAGCREEDAIEFLLINFVRCHHELGKSGTSNCYKKTLESTRKAVFSVFVMIQRGYLESQLRSQHASLVFTKRLLEDTVSNVFLRTLVEYLASTDECDEDAITETFNPIFGILRSGIICQRFEDNKDEIVRQILRVMNLLLSIRLPSNGPRPLSNLLVNREDFLPTPSEKIQGREFGLMSFLGPFFSYGLESSARRPNHRVFVDCEEDARKYDGSVNTEQKLYFQRMDPIRTMLHQLMLPLASDQGSRNKTLRWIATIISTNDIRTRSHYDPSDVLCDHYMTNFLSVMYMFSEKIDLSKIIVDYPFLPSSLINISKETRLKMDESGAVAFASQFADRPDEYHFSTVCFFLTIAAQRLVIPPLMNQISEYSRHLKELKHKINALKEKLNTVSGFERAEVEKKLNYETEHWKLMSRHLLCVKTQAQDPALMASSMDFVDKQMKFILNLLCDNLDLLGDDSQLPTEVSQMFCALPEYFLEDALDFYIFAISNGMKLLMERNADWISRLTVLFTQYHYIKSPFLVSKLVRVLSSIQPPLWFNVVRLRMAQENLLMCMIKFYSDFEDNGDFYEKFNVRGNIQYMLEKMEEDMFYKGKFMDMARECGAEFIRFVNMVINDATWCIDESLSGLKSIHDVEKKMANKVEWDNTDQEIRNQDLGVYEEAKRKVKGWLGTAKSNLKLLLSITVNSPEPFRTPVLGERLAAMLNHNLSQLIGSKASELKVKDPRSYGWEPREFVSLLISIYLKLNMPAFVKYIAYDERTYSPEFFHNAIECMRKNSIVGFSQLESFEHLAEDVKKEYEAKAELEEEYDDVPEEFKDPIMDAIMVDPVKLPSGHVMDRAVIERHLLSTPNNPFNRAPLSHNELSPDSELKAKIQEWICQKRNSKK
notes: GST fusion from pGEX-UFD-2, purified from E. coli; also called immobilized GST-UFD-2; not shown: glutathione S-transferase (GST) encoded by vector pGEX4T1
Consider B1, for which, in assay [1], the “fold more UNC-45 bound than by GST-CHN-1” value is roughly 20 fold.

B2: GST-CHN-1 (enzyme)
chain: MSSGAEQHNTNGKKCYMNKRYDDAVDHYSKAIKVNPLPKYYQNRAMCYFQLNNLKMTEEDCKRALELSPNEVKPLYFLGNVFLQSKKYSEAISCLSKALYHNAVITNAPDIENALKRARHQKYEEEESKRIVQDVEFHTYLESLIEKDRQENSENPEELQRADMAKKRLTELTLATQEKRQNREVPEMLCGKITLELMKEPVIVPSGITYDREEIVQHLRRIGHFDPVTRKPLTENEIIPNYALKEVIEKFLDDNPWAKYEPGGMV
notes: GST fusion from pGEX-CHN-1, purified from E. coli; also called GST-tagged version of CHN-1; not shown: glutathione S-transferase (GST) encoded by vector pGEX4T1
On to B2, for which the binding result in assay [2] was “binds”.

B3: myc-tagged CHN-1 (^mycCHN-1) (enzyme)
chain: MSSGAEQHNTNGKKCYMNKRYDDAVDHYSKAIKVNPLPKYYQNRAMCYFQLNNLKMTEEDCKRALELSPNEVKPLYFLGNVFLQSKKYSEAISCLSKALYHNAVITNAPDIENALKRARHQKYEEEESKRIVQDVEFHTYLESLIEKDRQENSENPEELQRADMAKKRLTELTLATQEKRQNREVPEMLCGKITLELMKEPVIVPSGITYDREEIVQHLRRIGHFDPVTRKPLTENEIIPNYALKEVIEKFLDDNPWAKYEPGGMV
notes: Full-length CHN-1, bacterially expressed from pET-^mycCHN-1; also called C. elegans CHIP ortholog; not shown: N-terminal myc tag introduced 5' of the cDNA by PCR (pET21a)
Consider B3, for which, in the assay with GST, the binding result was “no binding”.
